What follows are binders tested against T1, HLA-A*02:01 (human) (assay: UV peptide exchange ELISA).
T1 construct: monomers captured on streptavidin plates; also called MHC class I
Description: Candidate peptides for T cell based therapies according to the present invention were further tested for their MHC binding capacity (affinity). The individual peptide-MHC complexes were produced by UV-ligand exchange, where a UV-sensitive peptide is cleaved upon UV-irradiation, and exchanged with the peptide of interest as analyzed. Only peptide candidates that can effectively bind and stabilize the peptide-receptive MHC molecules prevent dissociation of the MHC complexes. To determine the yield of the exchange reaction, an ELISA was performed based on the detection of the light chain (p2m) of stabilized MHC complexes.
96 well MAXISorp plates (NUNC) were coated over night with 2 μg/ml streptavidin in PBS at room temperature, washed 4× and blocked for 1 h at 37° C. in 2% BSA containing blocking buffer. […] Peptide-MHC monomers of the UV-exchange reaction were diluted 100 fold in blocking buffer. Samples were incubated for 1h at 37° C., washed four times, incubated with 2 μg/ml HRP conjugated anti-p2m for 1h at 37° C., washed again and detected with TMB solution that is stopped with […]. Absorption was measured at 450 nm.
Binder NLPEYLPFV has a peptide exchange yield of 50 to 75%. FLLDLDPLLL showed a peptide exchange yield of 50 to 75%. For KLIESKHEV, the peptide exchange yield was 20 to 50%. For YLFENISQL, the peptide exchange yield was 50 to 75%. In the case of MLLEAPGIFL, the peptide exchange yield is reported as 50 to 75%. For SLLDEIRAV, the peptide exchange yield was 50 to 75%. Work on LLQKFVPEI yielded a peptide exchange yield of 20 to 50%. For KISPVTFSV, the peptide exchange yield was 50 to 75%. Work on ALQRKLPYV yielded a peptide exchange yield of 50 to 75%. With GLTSTNAEV the peptide exchange yield was 20 to 50%. Binder SLYPGTETMGL has a peptide exchange yield of 50 to 75%. With FLFDEEIEQI the peptide exchange yield was 50 to 75%. TLFFQQNAL gave a peptide exchange yield of 20 to 50%. QLLDADGFLNV was tested, and the peptide exchange yield was 50 to 75%. ALLENIALYL was tested, and the peptide exchange yield was 50 to 75%. ALLDQQGSRWTL was tested, and the peptide exchange yield was 50 to 75%. ALLPQPKNLTV showed a peptide exchange yield of 50 to 75%. SLWPDPMEV showed a peptide exchange yield of 50 to 75%. Work on SALEELVNV yielded a peptide exchange yield of 20 to 50%. Binder KVLEVTEEFGV has a peptide exchange yield of 50 to 75%. With KIAENVEEV the peptide exchange yield was 20 to 50%. RQISIRGIVGV gave a peptide exchange yield of 50 to 75%. YLMDESLNL was tested, and the peptide exchange yield was 50 to 75%. With GLVGNPLPSV the peptide exchange yield was at least 75%. In the case of ALPLFVITV, the peptide exchange yield is reported as 50 to 75%. In the case of ALTEIAFVV, the peptide exchange yield is reported as at least 75%. FQIDPHSGLVTV gave a peptide exchange yield of 20 to 50%. Binder ALDEMGDLLQL has a peptide exchange yield of 50 to 75%. Work on FLIDDKGYTL yielded a peptide exchange yield of 20 to 50%. NLWEDPYYL gave a peptide exchange yield of 50 to 75%. YLYSVEIKL was tested, and the peptide exchange yield was at least 75%. Work on KIFEMLEGV yielded a peptide exchange yield of 50 to 75%. For ALIHPVSTV, the peptide exchange yield was 20 to 50%. Binder FLSSLTETI has a peptide exchange yield of 50 to 75%. FGLDLVTEL was tested, and the peptide exchange yield was 50 to 75%. Binder VLQEGKLQKLAQL has a peptide exchange yield of 50 to 75%. With RLQETLSAA the peptide exchange yield was 50 to 75%. YLNHLEPPV gave a peptide exchange yield of 50 to 75%. VLYSYTIITV showed a peptide exchange yield of 20 to 50%. QLINHLHAV showed a peptide exchange yield of 50 to 75%. In the case of ALGPEGGRV, the peptide exchange yield is reported as 20 to 50%. YLLPEEYTSTL was tested, and the peptide exchange yield was at least 75%. Work on YQQAQVPSV yielded a peptide exchange yield of 50 to 75%. Work on GLFADLLPRL yielded a peptide exchange yield of 50 to 75%. With YLMEGSYNKVFL the peptide exchange yield was 20 to 50%. With FLATFPLAAV the peptide exchange yield was at least 75%. With LLLPLQILL the peptide exchange yield was 50 to 75%. In the case of LLDSASAGLYL, the peptide exchange yield is reported as 50 to 75%. Work on KTINKVPTV yielded a peptide exchange yield of 50 to 75%. For KVLNELYTV, the peptide exchange yield was 50 to 75%. ALAQYLITA was tested, and the peptide exchange yield was 50 to 75%. In the case of LLQEGQALEYV, the peptide exchange yield is reported as 20 to 50%. RLVDYLEGI was tested, and the peptide exchange yield was 50 to 75%. Work on GLFPVTPEAV yielded a peptide exchange yield of 50 to 75%. ALLEGVNTV gave a peptide exchange yield of 50 to 75%. KLFDVDEDGYI showed a peptide exchange yield of 50 to 75%. Work on LLWAGTAFQV yielded a peptide exchange yield of 50 to 75%. ALYEEGLLL gave a peptide exchange yield of 20 to 50%. LLFGSVQEV showed a peptide exchange yield of 50 to 75%. KMLDGASFTL showed a peptide exchange yield of 50 to 75%. Binder YLMDINGKMWL has a peptide exchange yield of 50 to 75%. GAAKDLPGV was tested, and the peptide exchange yield was 20 to 50%. KLSDIGITV was tested, and the peptide exchange yield was 50 to 75%. ALQDVPLSSV gave a peptide exchange yield of 50 to 75%. In the case of LLLNAVLTV, the peptide exchange yield is reported as 20 to 50%. KILDADIQL was tested, and the peptide exchange yield was at least 75%. With LLWPGAALL the peptide exchange yield was 20 to 50%. FTLGNVVGMYL was tested, and the peptide exchange yield was at least 75%. Binder ALWDQDNLSV has a peptide exchange yield of 20 to 50%. In the case of NLIENVQRL, the peptide exchange yield is reported as 20 to 50%.
